Target: design 9 G-CSFR(Ig-CRH)E, tag cleaved (human) (UniProt Q99062)
Test: SPR, WT G-CSF against design 9 G-CSFR(Ig-CRH)E; steady state derived affinity constant

Substance: WT G-CSF, purified from insect cells, tag cleaved (from UniProt P09919 31-206) (ligand)
- KD fold change (against WT:WT): 8810 fold
